From patent US20080305522A1 (MITSUKAN GROUP, published 2008) come the findings set out here.

Data set [1] concerns the molecule itself. As to the kind of experiment: phenyl hydrophobic column fractions, SDS-PAGE under reducing/non-reducing conditions and western blotting. In general terms: Immunoblotting shows a protein as a band on a membrane.
The target of data set [2] is T1, recombinant NBS secreted by Aspergillus oryzae NS-NAB2 (three Gly residues before the N terminus) (Curculigo latifolia, UniProt P19667 23-136).
T1 construct: Expressed as an alpha-amylase fusion and cleaved at Lys-Arg by a KEX2-like protease; also called 11 kDa band of recombinant neoculin
T1 sequence: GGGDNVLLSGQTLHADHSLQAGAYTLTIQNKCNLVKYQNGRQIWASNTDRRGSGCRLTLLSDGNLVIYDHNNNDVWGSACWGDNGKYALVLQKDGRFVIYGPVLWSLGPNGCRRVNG
The data set is described as above.

In data set [3] the target is T2, polypeptide NBS (neoculin basic subunit), purified from the fruit of Curculigo latifolia (Curculigo latifolia, UniProt P19667 23-136).
T2 construct: Subunit of native neoculin, without a sugar chain; It has 115 residues: curculin B plus one extra C-terminal Gly; also called 11 kDa subunit
T2 sequence: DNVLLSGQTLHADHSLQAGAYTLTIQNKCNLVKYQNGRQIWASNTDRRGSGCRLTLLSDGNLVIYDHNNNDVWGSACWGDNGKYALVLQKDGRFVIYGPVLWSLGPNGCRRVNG
The experiment in a line: SDS-PAGE under reducing and non-reducing conditions, CBB staining, native neoculin. On the procedure: 2.5 μg of the purified neoculin powder obtained above in (1) to (3) was subjected to SDS-PAGE under reducing conditions or non-reducing conditions at a gel concentration of 15% and subsequently to CBB staining. […] Thus, the individual subunits were designated as neoculin acidic subunit (NAS) and neoculin basic subunit (NBS).

B1: recombinant NAS secreted by Aspergillus oryzae NS-NAB2 (three Gly residues before the N terminus) (other)
chain: GGGDSVLLSGQTLYAGHSLTSGSYTLTIQNNCNLVKYQHGRQIWASDTDGQGSQCRLTLRSDGNLIIYDDNNMVVWGSDCWGNNGTYALVLQQDGLFVIYGPVLWPLGLNGCRSLN
notes: Expressed as an alpha-amylase fusion and cleaved at Lys-Arg by a KEX2-like protease; Glycosylation in the koji mold is not described; also called 13 kDa band of recombinant neoculin
In the case of B1, the binding result in data set [1] and in data set [2] was “binds” each time.

B2: polypeptide NAS (neoculin acidic subunit), purified from the fruit of Curculigo latifolia (other)
chain: DSVLLSGQTLYAGHSLTSGSYTLTIQNNCNLVKYQHGRQIWASDTDGQGSQCRLTLRSDGNLIIYDDNNMVVWGSDCWGNNGTYALVLQQDGLFVIYGPVLWPLGLNGCRSLN
modifications: N-linked sugar chain, mannose/N-acetylglucosamine/fucose/xylose at a ratio of about 3/2/1/1; binding site 'may possibly be asparagine-81' of SEQ ID NO.2
notes: Subunit of native neoculin; It separates from NBS only under reducing conditions in SDS-PAGE; also called 13 kDa subunit
For the molecule B2, the binding result in data set [3] was “binds”.
